These results are taken from PMC2645338.

In assay [1] the target is mitochondrial 28S small ribosomal subunit (bovine). Briefly: Microcon-100 centrifugation with dot blot immunodetection.
Assay [2] has the same target. Briefly: co-sedimentation.
In assay [3] the target is C-terminal domain of IF3mt with the linker, His6-tagged (human). Briefly: SPR. In general terms: In SPR one partner is held on a chip, and binding of the other changes the refractive index at the surface.
Assay [4] deals with mitochondrial 28S small ribosomal subunit (bovine). As to the kind of experiment: dot blot of epitope exposure.

On to “C-terminal domain of IF3mt with the linker, His6-tagged (domain or fragment)”, for which, in assay [1], the dissociation constant Kd (in general, a measure of binding affinity in units of concentration) worked out at 0.06 µM.

Turning to “C-terminal domain of IF3mt without the linker, His6-tagged (domain or fragment)”, the Kd in assay [1] was 0.095 µM.

On to “N-terminal domain of IF3mt with the linker, His6-tagged (domain or fragment)”, for which the Kd came to 0.277 µM in assay [2] and 0.24 µM in assay [1].

In assay [1], “N-terminal domain of IF3mt without the linker, His6-tagged (domain or fragment)” gave a Kd of 0.39 µM.

Consider “mitochondrial 28S small ribosomal subunit (complex)”, for which, in assay [3], the Kd is 0.044 µM; the koff (usually the first-order rate constant of dissociation) was 0.0092 s⁻¹; the kon (as a rule, a measure of how fast the partners come together) is 210000 M⁻¹ s⁻¹.

In assay [2], “mitochondrial initiation factor 3, mature full-length form, His-tagged (from UniProt Q9H2K0 32-278) (natural protein)” gave a dissociation constant Kd of 0.035 µM. In assay [4], this substance gave a quenching of the antigenic response on binding of 80%.

“untagged C-domain of IF3mt with the linker (His-tag removed with TEV protease) (domain or fragment)”: the dissociation constant (Kd) in assay [1] came to 0.07 µM.

“untagged IF3mt (mature full-length form, His-tag removed with TEV protease) (from UniProt Q9H2K0 32-278) (natural protein)” returned an equilibrium dissociation constant (Kd) in assay [1] of 0.04 µM.

Turning to “untagged N-domain of IF3mt with the linker (His-tag removed with TEV protease) (domain or fragment)”, the dissociation constant (Kd) in assay [1] worked out at 0.232 µM.
